In publication PMC3064480:

Experiments:
[1] = target: Recombinant human TβRI-ED (residues 1-101) (human); assay: ELISA
[2] = target: Recombinant human TβRII-ED (residues 1-137) (human); assay: ELISA
Recombinant human TβRII-ED (residues 1-137) (human), sequence (P37173 whole entry, the tested form may be a part): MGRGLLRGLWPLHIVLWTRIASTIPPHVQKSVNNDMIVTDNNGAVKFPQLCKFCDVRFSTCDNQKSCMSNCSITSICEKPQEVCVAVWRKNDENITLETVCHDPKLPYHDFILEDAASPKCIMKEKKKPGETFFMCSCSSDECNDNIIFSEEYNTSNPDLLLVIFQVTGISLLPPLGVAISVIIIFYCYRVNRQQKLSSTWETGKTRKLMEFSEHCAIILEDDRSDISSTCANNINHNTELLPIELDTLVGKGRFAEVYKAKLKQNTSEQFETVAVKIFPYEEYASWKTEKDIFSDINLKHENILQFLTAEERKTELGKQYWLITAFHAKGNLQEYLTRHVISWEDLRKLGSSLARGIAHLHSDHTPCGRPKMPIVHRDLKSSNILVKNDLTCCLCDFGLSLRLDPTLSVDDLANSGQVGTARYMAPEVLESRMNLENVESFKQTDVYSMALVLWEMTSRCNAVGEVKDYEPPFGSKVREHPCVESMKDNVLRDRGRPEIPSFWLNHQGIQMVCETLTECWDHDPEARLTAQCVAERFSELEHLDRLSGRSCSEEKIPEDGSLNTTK

Binder	Kd [1]	IC50 [1]	IC50 [2]	Kd [2]
MHRMPSFLPTTL [phage clone 2 (M13 phage displaying … on the N-terminus of the PIII protein)]	0.0001 µM			
MHRMPSFLPTTL [Pep2 (synthetic peptide …)]	10 µM	256 µM	274 µM	10 µM
LTGKNFPMFHRN [Pep1 (synthetic peptide …)]	10 µM	110 µM	156 µM	10 µM
LTGKNFPMFHRN [phage clone 1 (M13 phage displaying … on the N-terminus of the PIII protein)]	0.0001 µM			
